Measurements published in the Human Domainome abundance scans (Beltran et al. 2025).
± gives the uncertainty stated by the source.

B1: Connector enhancer of kinase suppressor of ras 2, residues 9 to 71; numbered along this chain, Q8WXI2 (parent)
chain: SKWSPSQVVDWMKGLDDCLQQYIKNFEREKISGDQLLRITHQELEDLGVSRIGHQELILEAVD

Variants of: B1
Test: abundance fitness (aPCA) (normalised: wild type 0, dead -1); higher = more abundant; growth selection in yeast, the domain comes from the species named
Conditions: Homo sapiens

Row | Variant | abundance fitness
1 | S50E | 0.024 ± 0.12
2 | S50D | -0.172 ± 0.1
3 | S50F | -0.139 ± 0.058
4 | S50R | -0.05 ± 0.076
5 | S50I | -0.571 ± 0.26
6 | S50K | 0.278 ± 0.29
7 | S50P | -0.391 ± 0.088
8 | S50Y | -0.05 ± 0.17
9 | S50N | -0.471 ± 0.34
10 | S50M | -0.09 ± 0.1
11 | S50A | -0.125 ± 0.15
12 | S50G | -0.258 ± 0.09
13 | S50H | 0.239 ± 0.17
14 | I52P | 0.038 ± 0.034
15 | I52H | -0.047 ± 0.06
16 | I52E | -0.058 ± 0.042
17 | I52K | 0.048 ± 0.035
18 | I52Y | -0.067 ± 0.041
19 | I52W | -0.174 ± 0.039
20 | I52N | -0.139 ± 0.057
21 | I52F | -0.071 ± 0.052
22 | I52D | -0.123 ± 0.04
23 | I52T | 0.017 ± 0.035

Row | Variant | abundance fitness
24 | I52R | 0.065 ± 0.024
25 | I52A | -0.011 ± 0.027
26 | I52M | -0.086 ± 0.04
27 | I52V | 0.002 ± 0.038
28 | I52G | -0.074 ± 0.025
29 | G53F | -0.079 ± 0.026
30 | G53M | -0.009 ± 0.049
31 | G53H | -0.015 ± 0.048
32 | G53K | 0.077 ± 0.037
33 | G53C | -0.05 ± 0.036
34 | G53N | 0.084 ± 0.081
35 | G53Q | 0.061 ± 0.034
36 | G53A | 0.037 ± 0.033
37 | G53W | -0.151 ± 0.03
38 | G53R | 0.046 ± 0.027
39 | G53E | 0.085 ± 0.039
40 | G53D | 0.086 ± 0.042
41 | G53T | 0.042 ± 0.027
42 | D46P | -0.813 ± 0.076
43 | D46M | -0.042 ± 0.04
44 | D46A | -0.054 ± 0.031
45 | D46N | -0.006 ± 0.036
46 | D46I | -0.178 ± 0.044

Row | Variant | abundance fitness
47 | D46C | -0.188 ± 0.044
48 | D46S | -0.037 ± 0.024
49 | D46F | -0.097 ± 0.035
50 | D46W | -0.192 ± 0.034
51 | D46G | -0.075 ± 0.026
52 | D46R | 0.027 ± 0.023
53 | D46H | 0.008 ± 0.039
54 | D46Q | -0.032 ± 0.048
55 | D46Y | -0.194 ± 0.04
56 | D46K | 0.072 ± 0.035
57 | D46V | -0.11 ± 0.032
58 | D46E | -0.013 ± 0.032
59 | D46T | -0.041 ± 0.031
60 | L59S | -0.652 ± 0.043
61 | L59R | -0.363 ± 0.028
62 | L59G | -0.674 ± 0.032
63 | L59P | -0.608 ± 0.075
64 | L59M | -0.032 ± 0.039
65 | L59Q | -0.646 ± 0.069
66 | L59E | -0.672 ± 0.041
67 | L59D | -0.594 ± 0.042
68 | L59A | -0.653 ± 0.032
69 | L59N | -0.741 ± 0.074

Row | Variant | abundance fitness
70 | L59I | -0.241 ± 0.048
71 | L59W | -0.758 ± 0.056
72 | L59Y | -0.61 ± 0.055
73 | L59H | -0.657 ± 0.068
74 | L59C | -0.557 ± 0.048
75 | L59T | -0.607 ± 0.038
76 | L59V | -0.552 ± 0.03
77 | L59K | -0.232 ± 0.034
78 | L59F | -0.358 ± 0.056
79 | Q55P | -0.654 ± 0.042
80 | Q55E | -0.954 ± 0.097
81 | Q55V | -0.319 ± 0.029
82 | Q55A | -0.296 ± 0.03
83 | Q55Y | -1.02 ± 0.16
84 | Q55D | -0.978 ± 0.093
85 | Q55T | -0.598 ± 0.036
86 | Q55C | -0.403 ± 0.043
87 | Q55L | -0.948 ± 0.041
88 | Q55S | -0.57 ± 0.034
89 | Q55R | 0.061 ± 0.024
90 | Q55K | -0.051 ± 0.034
91 | Q55I | -0.281 ± 0.042
92 | Q55W | -1.14 ± 0.06

Row | Variant | abundance fitness
93 | Q55N | -1.01 ± 0.091
94 | Q55H | -0.861 ± 0.052
95 | E56S | -0.17 ± 0.032
96 | E56G | -0.307 ± 0.031
97 | E56W | -0.362 ± 0.041
98 | E56A | -0.138 ± 0.042
99 | E56K | 0.041 ± 0.037
100 | E56V | -0.161 ± 0.034
101 | E56I | -0.102 ± 0.099
102 | E56N | -0.046 ± 0.057
103 | E56C | -0.176 ± 0.043
104 | E56R | -0.009 ± 0.027
105 | E56L | -0.158 ± 0.029
106 | E56Y | -0.333 ± 0.062
107 | E56D | -0.011 ± 0.045
108 | E56M | -0.157 ± 0.042
109 | E56H | -0.121 ± 0.051
110 | E56P | -0.728 ± 0.063
111 | E56T | -0.077 ± 0.033
112 | G48A | -0.844 ± 0.053
113 | G48L | -0.991 ± 0.055
114 | G48S | -0.66 ± 0.036
115 | G48I | -1.29 ± 0.33

Row | Variant | abundance fitness
116 | G48D | -0.64 ± 0.075
117 | G48W | -1.07 ± 0.071
118 | G48H | -0.813 ± 0.1
119 | G48K | -0.552 ± 0.058
120 | G48M | -0.871 ± 0.091
121 | G48V | -1.01 ± 0.064
122 | G48P | -0.704 ± 0.11
123 | G48C | -0.698 ± 0.055
124 | G48T | -0.865 ± 0.08
125 | G48E | -0.692 ± 0.055
126 | G48N | -0.66 ± 0.078
127 | L47I | 0.003 ± 0.064
128 | L47M | -0.083 ± 0.039
129 | L47D | -0.857 ± 0.061
130 | L47S | -0.813 ± 0.041
131 | L47W | -0.622 ± 0.047
132 | L47F | -0.612 ± 0.072
133 | L47C | -0.592 ± 0.083
134 | L47Q | -0.838 ± 0.073
135 | L47V | -0.423 ± 0.025
136 | L47G | -0.857 ± 0.038
137 | L47P | -0.762 ± 0.048
138 | L47R | -0.688 ± 0.038

Row | Variant | abundance fitness
139 | L47Y | -0.72 ± 0.067
140 | L47N | -0.783 ± 0.059
141 | L47A | -0.681 ± 0.032
142 | L47T | -0.805 ± 0.049
143 | L47H | -0.785 ± 0.08
144 | L47E | -0.795 ± 0.038
145 | V49N | -1.1 ± 0.13
146 | V49W | -0.866 ± 0.052
147 | V49H | -0.926 ± 0.079
148 | V49K | -0.925 ± 0.037
149 | V49A | -0.833 ± 0.044
150 | V49T | -0.857 ± 0.062
151 | V49P | -0.875 ± 0.056
152 | V49Y | -1.07 ± 0.11
153 | V49D | -0.777 ± 0.051
154 | V49C | -0.374 ± 0.033
155 | V49E | -0.903 ± 0.054
156 | V49F | -0.866 ± 0.12
157 | V49Q | -0.846 ± 0.065
158 | V49L | -0.621 ± 0.028
159 | V49I | -0.088 ± 0.049
